Measured values published in patent publication US20120213809A1.

Tests used:
[1] = molecular target: CCR7 on T2 hybridoma cells; experiment: cell-based or functional assay
[2] = molecular target: CP-MVP recombinant vaults (rat MVP generated in Sf9 cells) (rat) (UniProt Q62667); experiment: densitometry of Coomassie stained SDS-PAGE gels of purified vault complexes
UniProt Q62667, sequence (Q62667 2-861 limits assumed): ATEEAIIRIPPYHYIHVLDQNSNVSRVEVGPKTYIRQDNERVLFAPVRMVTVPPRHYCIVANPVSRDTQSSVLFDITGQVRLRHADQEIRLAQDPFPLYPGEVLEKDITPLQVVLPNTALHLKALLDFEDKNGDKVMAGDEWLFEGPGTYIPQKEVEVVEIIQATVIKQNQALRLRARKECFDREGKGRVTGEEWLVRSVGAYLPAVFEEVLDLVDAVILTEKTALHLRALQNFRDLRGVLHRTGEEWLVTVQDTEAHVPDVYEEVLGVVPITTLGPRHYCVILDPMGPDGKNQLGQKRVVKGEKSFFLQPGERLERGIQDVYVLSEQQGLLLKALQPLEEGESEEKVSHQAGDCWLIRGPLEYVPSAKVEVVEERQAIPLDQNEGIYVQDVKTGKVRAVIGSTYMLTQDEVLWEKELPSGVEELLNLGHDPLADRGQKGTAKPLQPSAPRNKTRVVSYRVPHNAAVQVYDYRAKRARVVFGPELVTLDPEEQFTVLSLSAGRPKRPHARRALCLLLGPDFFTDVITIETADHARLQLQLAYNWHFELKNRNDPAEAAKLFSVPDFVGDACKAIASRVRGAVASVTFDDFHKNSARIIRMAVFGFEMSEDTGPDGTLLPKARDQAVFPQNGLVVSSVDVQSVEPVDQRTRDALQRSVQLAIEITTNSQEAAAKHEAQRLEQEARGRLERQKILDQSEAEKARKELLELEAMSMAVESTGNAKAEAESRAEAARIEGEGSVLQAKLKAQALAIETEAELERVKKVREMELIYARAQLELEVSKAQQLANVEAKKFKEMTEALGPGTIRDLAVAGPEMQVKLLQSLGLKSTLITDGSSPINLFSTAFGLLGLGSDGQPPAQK

CCL-21 vault complex (CP-MVP vaults with packaged mouse CCL-21-mCherry-mINT), sequence (chain): as the sequence (Q62667 2-861 limits assumed) above
CCL-21 vault complex (CP-MVP vaults with packaged mouse CCL-21-mCherry-mINT), sequence (chain, part): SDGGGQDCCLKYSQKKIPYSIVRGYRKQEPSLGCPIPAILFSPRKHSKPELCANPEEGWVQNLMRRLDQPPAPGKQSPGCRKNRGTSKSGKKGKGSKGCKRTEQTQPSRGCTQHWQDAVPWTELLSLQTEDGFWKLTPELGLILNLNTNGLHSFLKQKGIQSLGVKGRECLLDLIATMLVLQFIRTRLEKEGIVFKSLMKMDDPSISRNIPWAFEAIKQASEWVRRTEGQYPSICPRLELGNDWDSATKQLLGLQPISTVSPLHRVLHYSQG

| % migration of T2 cells (dual-chamber chemotaxis assay) [1] [%] | molecules of CCL-21-mINT protein per vault complex (molecules per vault complex) [2] | Substance |
| --- | --- | --- |
| > 7.5 | – | CCL-21 vault complex (CP-MVP vaults with packaged mouse CCL-21-mCherry-mINT) |
| – | 20 to 30 | mouse CCL-21-mCherry-mINT fusion protein |
| < 2.5 | – | recombinant CCL-21 (R&D Systems) (ligand) |
